The source of these data is PMC6739308 (Scientific Reports, 2019).

In this test the target is T1, GST-p53 fusion protein (UniProt P04637 1-393).
T1 construct: p53 fused to GST
In words: pull-down; 10 μl GST beads bound with 2 μg of GST or GST-p53, purified Flag-tagged SMG7 proteins in solution; binding buffer BC100 with 1 μg/μl BSA, overnight at 4 °C, five washes, western blot. As to conditions: both partners purified.

T1 sequence (P04637 whole entry, the tested form may be a part): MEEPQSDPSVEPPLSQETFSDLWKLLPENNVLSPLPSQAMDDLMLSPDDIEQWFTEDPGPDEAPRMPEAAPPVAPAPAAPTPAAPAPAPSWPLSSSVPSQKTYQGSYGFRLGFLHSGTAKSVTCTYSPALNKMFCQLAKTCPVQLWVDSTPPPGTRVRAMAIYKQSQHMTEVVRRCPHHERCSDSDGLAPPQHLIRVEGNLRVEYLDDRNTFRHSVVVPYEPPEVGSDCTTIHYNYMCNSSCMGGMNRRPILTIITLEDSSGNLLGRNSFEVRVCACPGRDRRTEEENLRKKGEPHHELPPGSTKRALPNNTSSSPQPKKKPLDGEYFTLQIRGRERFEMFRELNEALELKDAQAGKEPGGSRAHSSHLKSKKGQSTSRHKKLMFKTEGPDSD

B1: purified FH-SMG7 C-terminal fragment 815–1091aa (domain or fragment, UniProt Q92540-2 815-1091, looked up)
chain: PSEVKVPEFYWDSSYSMADNRSVMAQQANIDRRGKRSPGVFRPEQDPVPRMPFEKSLLEKPSELMSHSSSFLSLTGFSLNQERYPNNSMFNEVYGKNLTSSSKAELSPSMAPQETSLYSLFEGTPWSPSLPASSDHSTPASQSPHSSNPSSLPSSPPTHNHNSVPFSNFGPIGTPDNRDRRTADRWKTDKPAMGGFGIDYLSATSSSESSWHQASTPSGTWTGHGPSMEDSSAVLMESLKSIWSSSMMHPGPSALEQLLMQQKQKQQRGQGTMNPPH
notes: numbers count on a form of 1091 residues; source: purified; not shown: Flag, N-terminal, kept; HA, N-terminal, kept
B1: the binding result is listed as “binds”.
